T1: Boi1 SH3 (BOI1_YEAST), P38041
T1 chain: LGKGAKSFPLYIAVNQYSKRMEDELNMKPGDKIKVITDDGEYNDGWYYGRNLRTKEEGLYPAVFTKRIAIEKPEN

T2: Boi2 SH3 (BOI2_YEAST), P39969
T2 chain: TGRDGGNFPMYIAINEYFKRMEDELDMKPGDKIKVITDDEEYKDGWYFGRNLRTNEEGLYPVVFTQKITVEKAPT

T3: Rvs167 SH3 (RV167_YEAST), P39743
T3 chain: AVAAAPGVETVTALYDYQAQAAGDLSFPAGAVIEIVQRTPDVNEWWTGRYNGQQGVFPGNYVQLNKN

T4: Yfr024 SH3 (LSB3_YEAST), P43603
T4 chain: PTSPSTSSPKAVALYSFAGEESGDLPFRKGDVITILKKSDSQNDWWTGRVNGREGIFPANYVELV

T5: Yhr016c SH3 (YSC84_YEAST), P32793
T5 chain: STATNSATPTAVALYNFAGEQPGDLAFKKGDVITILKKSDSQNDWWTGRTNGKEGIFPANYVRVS


Tests used:
Assay in all cases: SPOT array
[1] = molecular target: T1, Boi1 SH3 (BOI1_YEAST), P38041
[2] = molecular target: T2, Boi2 SH3 (BOI2_YEAST), P39969
[3] = molecular target: T3, Rvs167 SH3 (RV167_YEAST), P39743
[4] = molecular target: T4, Yfr024 SH3 (LSB3_YEAST), P43603
[5] = molecular target: T5, Yhr016c SH3 (YSC84_YEAST), P32793

| Binder | normalised SPOT signal, Boehringer light units (BLU); mean over the file's lines of this peptide [1] | normalised SPOT signal, Boehringer light units (BLU); mean over the file's lines of this peptide [2] | normalised SPOT signal, Boehringer light units (BLU); mean over the file's lines of this peptide [3] | normalised SPOT signal, Boehringer light units (BLU); mean over the file's lines of this peptide [4] | normalised SPOT signal, Boehringer light units (BLU); mean over the file's lines of this peptide [5] |
| --- | --- | --- | --- | --- | --- |
| QDSPDMPEKESVYV [YER179W 310-323] | 51.6 | 42.6 | 4.7 | 26.9 | 0 |
| QEKPLTPLKYTKLI [YHL025W 160-173] | 78 | 28.6 | 99.4 | 929 | 7.1 |
| QETPIIPKRIIHYS [YLR030W 11-24] | 4800 | 246 | 625 | 15200 | 7820 |
| QFVPIAPQRLNMIF [YMR247C 1015-1028] | 427 | 68.9 | 90 | 1580 | 601 |
| QGEPLDPKRPSTAS [YGL027C 141-154] | 51.9 | 23.1 | 45.6 | 440 | 418 |
| QGLPASPSRAALRY [YBR038W 55-68] | 1720 | 57.8 | 62.5 | 522 | 104 |
| QGPPNLPARDKSLV [YLL023C 9-22] | 63.2 | 23 | 18500 | 36100 | 64000 |
| QGQPLPPPRGQVIL [YBR108W 287-300] | 231 | 83.2 | 8250 | 22700 | 16000 |
| QGYPRQPQRPQRYH [YDR171W 27-40] | 7410 | 377 | 620 | 13200 | 8440 |
| QIFPKKPLRRTVMS [YDR182W 166-179] | 231 | 282 | 737 | 35400 | 8570 |
| QILPTKPVKIIEQN [YLR082C 68-81] | 30.5 | 36.5 | 14.6 | 183 | 73.8 |
| QKTPPSPAKPKQKT [YBR102C 26-39] | 331 | 43.4 | 156 | 365 | 176 |
| QLEPLAPYKFFDII [YLR430W 1690-1703] | 85.7 | 23.8 | 62.7 | 70.2 | 334 |
| QLFPVRPVRVRHED [YDL150W 198-211] | 34100 | 5900 | 11400 | 28800 | 13600 |
| QLLPNNPDKNNNGT [YKL159C 151-164] | 149 | 52.3 | 0 | 49.9 | 130 |
| QLLPNVPDKVLVPG [YDL220C 391-404] | 87.7 | 49.5 | 67.5 | 69 | 92.2 |
| QLTPLLPDKYFDSA [YBL066C 693-706] | 50.1 | 19.8 | 106 | 516 | 207 |
| QMNPKNPIRLGMAN [YOR227W 657-670] | 679 | 118 | 25.7 | 866 | 182 |
| QMRPYTPLRSPNSR [YOR093C 49-62] | 2880 | 1420 | 1140 | 4420 | 1440 |
| QNNPPKPQKPVPLN [YOR290C 415-428] | 14.1 | -0 | 23.6 | 116 | 148 |
| QNTPPLPPKPKSPH [YCL008C 175-188] | 102 | 46 | 1050 | 38500 | 18200 |
| QPAPRIPSKDAIIS [YAL051W 100-113] | 58.1 | 23.6 | 169 | 1610 | 95.9 |

Source: article PMC314469, “Protein Interaction Networks by Proteome Peptide Scanning” (PLoS Biology, 2004)
